# Bridges are numbered along the chain shown (N, C = ends). Where no end group is shown, it is not given here.
# B1: g3b.6 peptide-phage (peptide)
# peptide: GRAQCTEGPWGWVCMAAD
# modifications: not fully specified (bridges); cysteine pairing not given here
# notes: not shown: fused to M13 gene-3 protein (g3p) on phage
# B2: IGE131 (peptide)
# peptide: VQCPHFCYVGGKVQCPHFCYV-NH2
# modifications: disulfide 3-15, 7-19
# notes: The text speaks of it as D17H against IGE122
# B3: g3b.4 peptide-phage (peptide)
# peptide: VMPTCTEGPWGWVCMAAD
# modifications: not fully specified (bridges); cysteine pairing not given here
# notes: as for B1
# B4: g3b.8 peptide-phage (peptide)
# peptide: GRTECTEGPWGWVCMAAD
# modifications: not fully specified (bridges); cysteine pairing not given here
# notes: as for B1
# B5: g3b.1 peptide-phage (peptide)
# peptide: NLPRCTEGPWGWVCMAAD
# modifications: disulfide 5-14 (inferred); not fully specified
# notes: as for B1
# B6: g3b.3 peptide-phage (peptide)
# peptide: NLPTCTEGPWGWVCMAAD
# modifications: not fully specified (bridges); cysteine pairing not given here
# notes: as for B1
# B7: IGE142 (peptide)
# peptide: VQCAHFCYVGGHALCPDVCYVGR
# modifications: disulfide (positions not given here); also: two intramolecular disulfide bonds, pairing not given here
# notes: P4A of IGE132; made in E. coli as a Z-domain fusion and cleaved with trypsin
# B8: g3b.5 peptide-phage (peptide)
# peptide: AMAQCTEGPWGWVCMAAD
# modifications: not fully specified; cysteine pairing not given here
# notes: as for B1
# B9: IGE150 (peptide)
# peptide: VQCPHFCYVGGKALCPDVCDV-NH2
# modifications: disulfide (positions not given here); also: two intramolecular disulfide bonds, pairing not given here
# notes: Y20D of IGE122
# B10: g3b.7 peptide-phage (peptide)
# peptide: DLPACTEGPWGWVCMAAD
# modifications: not fully specified; cysteine pairing not given here
# notes: as for B1
# Assays:
# [1] = molecular target: T1, alpha subunit of the human FcεRI receptor expressed on cells (human, UniProt P12319 26-257); test: IgE inhibition assay (Table 9)
# T1 construct: whole, on cells; on rat basophil RBL-48 cells in the histamine release assay; also called CHO FcεRI+ cells; cell surface expressed FcεRI
# T1 sequence (looked up): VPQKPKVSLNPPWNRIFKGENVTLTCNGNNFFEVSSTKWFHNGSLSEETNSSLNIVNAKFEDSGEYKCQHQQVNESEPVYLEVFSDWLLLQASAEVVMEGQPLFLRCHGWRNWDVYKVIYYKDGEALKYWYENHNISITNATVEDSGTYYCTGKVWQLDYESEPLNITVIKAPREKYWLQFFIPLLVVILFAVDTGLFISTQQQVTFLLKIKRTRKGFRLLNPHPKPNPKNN
# FcεRI-IgG = molecular target: T2, FcεRI-IgG (UniProt P12319 26-205); test: competitive phage ELISA: g3 peptide-phage on immobilized FcεRI-IgG, soluble FcεRI-IgG titrated
# T2 construct: extracellular domain; Produced from CHO cells (Genentech); also called FcεRI-Fc; bivalent fusion protein of the extracellular domain of FcεRI and the Fc domain of IgG; not shown: Fc domain of IgG
# T2 sequence (looked up): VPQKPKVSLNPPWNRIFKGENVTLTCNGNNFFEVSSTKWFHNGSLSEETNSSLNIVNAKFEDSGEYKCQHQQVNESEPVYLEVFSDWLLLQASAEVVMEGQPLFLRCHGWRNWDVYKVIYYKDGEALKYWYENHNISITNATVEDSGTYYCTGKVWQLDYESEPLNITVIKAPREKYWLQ
# Excerpt: Peptide sequences from g8p-fused phage clones that specifically bound FcεRI-IgG were transferred onto a g3p-display format for monovalent phage display (Bass et al., *Proteins* 8, 309–314 (1990); Lowman et al., *Biochemistry* 30, 10832–10838 (1991)). An oligonucleotide encoding for each desired peptide with additional 5' and 3' base pair that overlapped with g3 was synthesized. This oligonucleotide was annealed with a g3 single stranded DNA phagemid template. The mutagenesis reaction was transformed into XL-1 Blue *E. coli* and plated on LB-carb+ agar plates. Individual colonies were propagated in 5 mL of 2YT broth, tetracycline, carbenicillin and VCSM13 helper phage (Stratagene). Single stranded DNA was isolated from the purified phage particles and sequenced to confirm the insertion of the phage peptide sequence. 25 mL preparations of g3 phage clones were propagated overnight and purified by PEG precipitation. After resuspension of the phage pellet in 1.0 mL of PBS, it was serially diluted 1/3 and incubated with immobilized FcεRI-IgG 2 ug/mL in a 96 well Maxisorp microtiter plate for 1 hour at room temperature. The wells were washed 10× with PBST then incubated with 100 uL of anti M13 phage HRP as described above. An OD(492) value corresponding to less than 50% binding was selected and the purified phage clones were diluted to yield this normalized level of signal. […] The mixture was then transferred to 96 well microtiter dishes containing immobilized FcεRI-IgG. After a 1-hour incubation period, the plates were washed 10 times, incubated with anti M13-HRP conjugated antibody and developed with OPD as described above.
binder,measurement,setting,value
"IVCPRLCYELDYELCPDVCYV-NH2 (disulfide 3-15, 7-19) [IGE141]",fold difference in activity against IGE120,[1],2 fold
B1,IC50,FcεRI-IgG,16 nM
"IVCARLCYVGGKALCPDVCYV-NH2 (disulfide 3-15, 7-19, P4A of IGE120) [IGE127]",fold reduced activity against its control peptide,[1],50 fold
"VQCPHFCYFGGAELCPGVCYV-NH2 (disulfide 3-15, 7-19) [IGE136]",fold difference in activity against IGE135,[1],~2 fold
Ac-CPHFCYFGAELCPDVCY-NH2 (disulfide (positions not given here)) [IGE171],fold difference in activity against IGE167,[1],≤ 2 fold
B2,fold reduced activity against IGE122,[1],> 10 fold
B3,IC50,FcεRI-IgG,7 nM
B4,IC50,FcεRI-IgG,14 nM
B5,IC50,FcεRI-IgG,13 nM
B6,IC50,FcεRI-IgG,7 nM
B7,fold reduced activity against its control peptide,[1],> 100 fold
B8,IC50,FcεRI-IgG,10 nM
B9,fold loss in activity,[1],~5 fold
B10,IC50,FcεRI-IgG,9 nM
CPHFCYFGAELCPDVCY-NH2 (disulfide (positions not given here)) [IGE170],fold difference in activity against IGE167,[1],≤ 2 fold
